In publication PMC4793188, “Mechanism and inhibition of human UDP-GlcNAc 2-epimerase, the key enzyme in sialic acid biosynthesis” (Scientific Reports, 2016):

Legend:
[1] = molecular target: the molecule itself; test: SEC; gel filtration of the apo-enzyme; data not shown
[2] = molecular target: the molecule itself; test: crystal structure; Se-Met protein incubated in 5 mM UDP-GlcNAc and 5 mM CMP-Neu5Ac for 16-18 h at 4 °C; crystals from 0.2 M ammonium acetate, 0.1 M HEPES pH 7.1, 19% PEG 3350; UDP and CMP-Neu5Ac bound; 2.7 Å; space group C2, four monomers in the asymmetric unit

B1: epimerase part of human GNE (UDP-GlcNAc 2-epimerase domain of the bifunctional UDP-GlcNAc 2-epimerase/ManNAc kinase) (domain or fragment)
chain: MEKNGNNRKLRVCVATCNRADYSKLAPIMFGIKTEPEFFELDVVVLGSHLIDDYGNTYRMIEQDDFDINTRLHTIVRGEDEAAMVESVGLALVKLPDVLNRLKPDIMIVHGDRFDALALATSAALMNIRILHIEGGEVSGTIDDSIRHAITKLAHYHVCCTRSAEQHLISMCEDHDRILLAGCPSYDKLLSAKNKDYMSIIRMWLGDDVKSKDYIVALQHPVTTDIKHSIKMFELTLDALISFNKRTLVLFPNIDAGSKEMVRVMRKKGIEHHPNFRAVKHVPFDQFIQLVAHAGCMIGNSSCGVREVGAFGTPVINLGTRQIGRETGENVLHVRDADTQDKILQALHLQFGKQYPCSKIYGDGNAVPRILKFLKSIDLQEPLQKKFCFPPVKENISQDIDHILE
modifications: selenomethionine (Se-Met enriched protein, used for the crystal structure)
notes: UDP-GlcNAc 2-epimerase domain (N-terminal epimerase part, ~400 aa) of human bifunctional UDP-GlcNAc 2-epimerase/ManNAc kinase (GNE, ~720 aa); Cloned into pET21a(+); dimer as apo-enzyme by gel filtration; also called 2-epimerase domain of GNE; recombinant human UDP-GlcNAc 2-epimerase; source: E. coli BL21 (DE3), purified (Ni-NTA, Superdex-200)
Which “stoichiometry N” value [1] does the source give for B1 here?
Its value is 2.

What about the “stoichiometry N” value [2] of the same protein?
The value was 4.
